B1: IαI: inter-α-inhibitor purified from human serum; the TSG-6 binding protein (protein)
chain 1: AVLPQEEEGSGGGQLVTEVTKKEDSCQLGYSAGPCMGMTSRYFYNGTSMACETFQYGGCMGNGNNFVTEKECLQTCRTVAACNLPIVRGPCRAFIQLWAFDAVKGKCVLFPYGGCQGNGNKFYSEKECREYCGVPGDGDEELLRFSN
chain 2: SLPGESEEMMEEVDQVTLYSYKVQSTITSRMATTMIQSKVVNNSPQPQNVVFDVQIPKGAFISNFSMTVDGKTFRSSIKEKTVGRALYAQARAKGKTAGLVRSSALDMENFRTEVNVLPGAKVQFELHYQEVKWRKLGSYEHRIYLQPGRLAKHLEVDVWVIEPQGLRFLHVPDTFEGHFDGVPVISKGQQKAHVSFKPTVAQQRICPNCRETAVDGELVVLYDVKREEKAGELEVFNGYFVHFFAPDNLDPIPKNILFVIDVSGSMWGVKMKQTVEAMKTILDDLRAEDHFSVIDFNQNIRTWRNDLISATKTQVADAKRYIEKIQPSGGTNINEALLRAIFILNEANNLGLLDPNSVSLIILVSDGDPTVGELKLSKIQKNVKENIQDNISLFSLGMGFDVDYDFLKRLSNENHGIAQRIYGNQDTSSQLKKFYNQVSTPLLRNVQFNYPHTSVTDVTQNNFHNYFGGSEIVVAGKFDPAKLDQIESVITATSANTQLVLETLAQMDDLQDFLSKDKHADPDFTRKLWAYLTINQLLAERSLAPTAAAKRRITRSILQMSLDHHIVTPLTSLVIENEAGDERMLADAPPQDPSCCSGALYYGSKVVPDSTPSWANPSPTPVISMLAQGSQVLESTPPPHVMRVEND
chain 3: SKSSEKRQAVDTAVDGVFIRSLKVNCKVTSRFAHYVVTSQVVNTANEAREVAFDLEIPKTAFISDFAVTADGNAFIGDIKDKVTAWKQYRKAAISGENAGLVRASGRTMEQFTIHLTVNPQSKVTFQLTYEEVLKRNHMQYEIVIKVKPKQLVHHFEIDVDIFEPQGISKLDAQASFLPKELAAQTIKKSFSGKKGHVLFRPTVSQQQSCPTCSTSLLNGHFKVTYDVSRDKICDLLVANNHFAHFFAPQNLTNMNKNVVFVIDISGSMRGQKVKQTKEALLKILGDMQPGDYFDLVLFGTRVQSWKGSLVQASEANLQAAQDFVRGFSLDEATNLNGGLLRGIEILNQVQESLPELSNHASILIMLTDGDPTEGVTDRSQILKNVRNAIRGRFPLYNLGFGHNVDFNFLEVMSMENNGRAQRIYEDHDATQQLQGFYSQVAKPLLVDVDLQYPQDAVLALTQNHHKQYYEGSEIVVAGRIADNKQSSFKADVQAHGEGQEFSITCLVDEEEMKKLLRERGHMLENHVERLWAYLTIQELLAKRMKVDREERANLSSQALQMSLDYGFVTPLTSMSIRGMADQDGLKPTIDKPSEDSPPLEMLGPRRTFVLSALQPSPTHSSSNTQRLPDRVTGVDTD
B2: IL-1: E. coli-derived recombinant human IL-1α (protein, UniProt P01583 113-271, looked up)
Interleukin-1 alpha: SAPFSFLSNVKYNFMRIIKYEFILNDALNQSIIRANDQYLTAAALHNLDEAVKFDMGAYKSSKDDAKITVILRISKTQLYVTAQDEDQPVLLKEMPEIPKTITGSETNLLFFWETHGTKNYFTSVAHPNLFIATKQDYWVCLAGGPPSITDFQILENQA
modifications: E. coli recombinant
notes: E. coli-derived recombinant human IL-1α

Columns and labels:
[1] = target: T1, IαI purified from human serum (Homo sapiens, UniProt P02760+P19823); assay: TSG-6/IαI complex formation with purified proteins (SDS-PAGE, Western blot); assay type: binding; details: preincubated 16 hrs. at 37° C. with chondroitinase, then mixed with the untreated partner protein
T1 construct: IαI is a complex protein in which the bikunin chain is linked to HC1 and HC2; supposed to determine the cleavage site for the C-terminal propeptide; from tissue; host or cells: human serum
T1 sequence (P98066 18-277 partner, one chain of several): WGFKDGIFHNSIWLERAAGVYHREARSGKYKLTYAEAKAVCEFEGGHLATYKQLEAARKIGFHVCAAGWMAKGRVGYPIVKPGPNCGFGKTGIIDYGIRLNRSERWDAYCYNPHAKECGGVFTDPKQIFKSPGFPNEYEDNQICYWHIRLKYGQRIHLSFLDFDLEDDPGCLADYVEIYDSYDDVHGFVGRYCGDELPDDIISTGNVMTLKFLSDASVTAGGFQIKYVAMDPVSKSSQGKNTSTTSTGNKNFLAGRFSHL
Description: Purified recombinant TSG-6 protein (lane 1) and IαI purified from human serum (lane 2) were mixed and incubated for 2 min. (lane 3), 5 min. (lane 4), 10 min. (lane 5), 15 min. (lane 6), 30 min. (lane 7), or for 60 min. (lane 8) at 37° C. or for 60 min. at 0° C. (lane 9). The reaction mixtures were then separated by SDS-PAGE and subjected to Western blot analysis with rabbit anti-TSG-6 serum.
Four micrograms of purified IαI and 3 μg of purified TSG-6 protein were incubated separately for 16 hrs. at 37° C. in the absence or presence of 30 milliunits of chondroitin sulfate ABC lyase. […]
Analysis of TSG-6 Binding to Carrier Protein. To determine the presence of TSG-6 binding protein, samples to be analyzed were mixed with an equal volume of TSG-6-containing serum-free supernatants of TN-5 B insect cells infected with recombinant Baculovirus and incubated at 37° C. for 30-60 min. (Purified TSG-6 protein was used in some experiments, as indicated.) Thereafter, the mixtures were analyzed for the presence of the 120-kDa complex by Western blotting with purified rabbit antibody to TSG-6 as described earlier (Wisniewski et al, J. Immunol. 151:6593-6601 (1993)). […]
Rapid Complex Formation between Recombinant TSG-6 Protein and IαI Purified from Human Serum at 37° C. The 120kDa TSG-6/IαI complex formed readily when purified TSG-6 protein and purified IαI were incubated together at 37° C. but not at 0° C. […]

[2] = system: TSG-27 (Stromelysin) mRNA; assay: Northern blot analysis of TSG mRNA levels in FS-4 cells; assay type: cell-based, human; details: growth arrested FS-4 cells, 16 h of treatment; TNF 20 ng/ml, CHX 10 ug/ml, IFN-β 500 U/ml, IFN-γ 100 U/ml, IL-1-α 1 ng/ml, EGF 25 ng/ml, TGF-β 2 ng/ml, poly(I).poly(C) 50 ug/ml, TPA 100 ng/ml, forskolin 10 uM, IBMX 100 uM
Description: (§1) The human diploid FS-4 foreskin fibroblast cell line (Vilcek, J. et al, Proc. Natl. Acad. Sci. USA 70:3909-3913 (1973)) was used at passage level 15 in all experiments. FS-4 cells were grown in Eagle minimal essential medium (E-MEM) supplemented with 6 mM HEPES, 3 mM Tricine, 50 μg/ml gentamicin, and 5% heat inactivated (56° C., 30 min) fetal bovine serum (FBS; GIBCO Laboratories, Grand Island, N.Y.). For experiments, 4×10^6 cells were seeded in 175 cm^2 Falcon flasks, incubated at 37° C., and allowed to grow to confluence over 6 days. The confluent monolayers were washed once with phosphate buffered saline and replenished with E-MEM containing […] FBS. The cultures were incubated in this medium for another 72 h at 37° C. to let the cells become quiescent and then treated with the appropriate agents, as specified herein.
(§2) Cytoplasmic RNA was fractionated on a 1% agarose gel containing formaldehyde and blotted onto Zeta-probe blotting membranes (Bio-Rad Laboratories, Richmond, Calif.). Cytoplasmic RNA was loaded at 10 μg/lane. Prehybridization and hybridization of Northern blots were performed as described (Lin, J.-X. et al, supra). Filters were probed with 32P-labeled cDNA insert from recombinant M13 clones and/or with 32P-labeled internal reference pHe7 insert. Northern blots were quantified with a laser densitometer.
(§3) The increase in mRNA levels ranged from about 3-fold (TSG-21) to over 100-fold (TSG-6 and TSG-8).
(§4) Table 3 provides a summary of a large number of experiments in which levels of mRNAs corresponding to the 8 distinct TSG cDNAs were determined in FS-4 cells exposed to various agents by Northern blot analysis. Three of the mRNAs (corresponding to TSG-8, TSG-12 and TSG-14) were inducible by the protein synthesis inhibitor, cycloheximide (CHX). […] In contrast, induction of the remaining 3 mRNAs by TNF was inhibited or reduced in the presence of CHX. Five of the mRNAs were inducible by IFN-β, but only two of these responded to […]. Simultaneous treatment with IFN-β reduced inducibility of TSG-1 (=IL-8) mRNA by TNF, but increased the inducibility of TSG-6 and TSG-37 mRNAs. All mRNAs were inducible by IL-1 and by the doublestranded RNA poly(I)-poly(C) or the phorbol ester 12-O-tetradecanoyl phorbol 13-acetate (TPA), but the efficiency of induction by these agents varied. Epidermal growth factor (EGF) was moderately efficient in increasing TSG-21 (=collagenase) and TSG-27 (=stromelysin) mRNA levels, and weakly stimulated several other mRNAs. PDGF and transforming growth factor-β (TGF-β) were only weakly effective, as were dibutyryl cyclic AMP (dBcAMP) and the phosphodiesterase inhibitor, isobutyl methyl xanthine (IBMX).

[3] = system: TSG-12 mRNA; assay: as above; assay type: cell-based, human; details: growth arrested FS-4 cells, 2 h; TNF 20 ng/ml, CHX 10 ug/ml, IFN-β 500 U/ml, IFN-γ 100 U/ml, IL-1-α 1 ng/ml, EGF 25 ng/ml, TGF-β 2 ng/ml, poly(I).poly(C) 50 ug/ml, TPA 100 ng/ml, A23187 1 uM, forskolin 10 uM, dBcAMP 100 uM, IBMX 100 uM
Description: as §1, §2, §3, §4

[4] = system: TSG-1 (IL-8) mRNA; assay: as above; assay type: cell-based, human; details: growth arrested FS-4 cells, 2 h; TNF 20 ng/ml, CHX 10 ug/ml, IFN-β 500 U/ml, IFN-γ 100 U/ml, IL-1-α 1 ng/ml, EGF 25 ng/ml, TGF-β 2 ng/ml, poly(I).poly(C) 50 ug/ml, TPA 100 ng/ml, A23187 1 uM, forskolin 10 uM, dBcAMP 100 uM, IBMX 100 uM
Description: as §1, §2, §3, §4

[5] = system: TSG-37 (MT-II) mRNA; assay: as above; assay type: cell-based, human; details: growth arrested FS-4 cells, 2 h; TNF 20 ng/ml, CHX 10 ug/ml, IFN-β 500 U/ml, IFN-γ 100 U/ml, IL-1-α 1 ng/ml, EGF 25 ng/ml, TGF-β 2 ng/ml, poly(I).poly(C) 50 ug/ml, TPA 100 ng/ml, A23187 1 uM, forskolin 10 uM, dBcAMP 100 uM, IBMX 100 uM
Description: as §1, §2, §3, §4

[6] = system: TSG-6 mRNA; assay: as above; assay type: cell-based, human; details: growth arrested FS-4 cells, 2 h; TNF 20 ng/ml, CHX 10 ug/ml, IFN-β 500 U/ml, IFN-γ 100 U/ml, IL-1-α 1 ng/ml, EGF 25 ng/ml, TGF-β 2 ng/ml, poly(I).poly(C) 50 ug/ml, TPA 100 ng/ml, A23187 1 uM, forskolin 10 uM, dBcAMP 100 uM, IBMX 100 uM
Description: as §1, §2, §3, §4

[7] = system: TSG-8 (MCAF) mRNA; assay: as above; assay type: cell-based, human; details: growth arrested FS-4 cells, 2 h; TNF 20 ng/ml, CHX 10 ug/ml, IFN-β 500 U/ml, IFN-γ 100 U/ml, IL-1-α 1 ng/ml, EGF 25 ng/ml, TGF-β 2 ng/ml, poly(I).poly(C) 50 ug/ml, TPA 100 ng/ml, A23187 1 uM, forskolin 10 uM, dBcAMP 100 uM, IBMX 100 uM
Description: as §1, §2, §3, §4

[8] = system: TSG-21 (Collagenase) mRNA; assay: as above; assay type: cell-based, human; details: growth arrested FS-4 cells, 16 h of treatment; TNF 20 ng/ml, CHX 10 ug/ml, IFN-β 500 U/ml, IFN-γ 100 U/ml, IL-1-α 1 ng/ml, EGF 25 ng/ml, TGF-β 2 ng/ml, poly(I).poly(C) 50 ug/ml, TPA 100 ng/ml, forskolin 10 uM, IBMX 100 uM
Description: as §1, §2, §3, §4

[9] = system: TSG-14 mRNA; assay: as above; assay type: cell-based, human; details: growth arrested FS-4 cells, 2 h; TNF 20 ng/ml, CHX 10 ug/ml, IFN-β 500 U/ml, IFN-γ 100 U/ml, IL-1-α 1 ng/ml, EGF 25 ng/ml, TGF-β 2 ng/ml, poly(I).poly(C) 50 ug/ml, TPA 100 ng/ml, A23187 1 uM, forskolin 10 uM, dBcAMP 100 uM, IBMX 100 uM
Description: as §1, §2, §3, §4

ability to form the TSG-6/IαI complex after pretreatment of the protein with chondroitin sulfate ABC lyase [1] | Molecule | Relative Increase in mRNA Level TSG-27 (Stromelysin) [2] | Relative Increase in mRNA Level TSG-12 [3] | Relative Increase in mRNA Level TSG-1 (IL-8) [4] | Relative Increase in mRNA Level TSG-37 (MT-II) [5] | Relative Increase in mRNA Level TSG-6 [6] | Relative Increase in mRNA Level TSG-8 (MCAF) [7] | Relative Increase in mRNA Level TSG-21 (Collagenase) [8] | Relative Increase in mRNA Level TSG-14 [9]
no longer able to form a complex | B1 | – | – | – | – | – | – | – | –
– | B2 | ++ | ++++ | + | ++ | + | ++ | ++ | ++++

From patent publication US6518401B2, “Tumor necrosis factor stimulated gene 6 (TSG-6) protein” (New York University, priority 1991, dated 2003)
